From PMC7969015 (Nucleic Acids Research, 2021)

Legend:
Assay in all cases: SEC
[1] = molecular target: hGTPBP3 G domain (G249-P426) (human)
[2] = molecular target: hGTPBP3 G domain A322P (human)
[3] = molecular target: hGTPBP3 G domain P257H (human)
[4] = molecular target: hGTPBP3 G domain ΔG312-V319 (human)
[5] = molecular target: mature hGTPBP3 (hGTPBP3-ΔN20, T21-K492) (human)
[6] = molecular target: ΔN-hGTPBP3 (N154-K492) (human)
SEC = molecular target: the molecule itself

Q: For “hGTPBP3 G domain (G249-P426) (domain or fragment)”, which stoichiometry N [1] is on record?
A: Its stoichiometry N is 2.

Q: “hGTPBP3 G domain A322P (domain or fragment)” was tested. Which stoichiometry N [2] did it give?
A: Its stoichiometry N is 2.

Q: Which stoichiometry N [3] does the source give for “hGTPBP3 G domain P257H (domain or fragment)” here?
A: The stoichiometry N was 2.

Q: Which stoichiometry N [4] does the source give for “hGTPBP3 G domain ΔG312-V319 (domain or fragment)” here?
A: Its stoichiometry N is 2.

Q: How did the stoichiometry N [5] turn out when “mature hGTPBP3 (hGTPBP3-ΔN20, T21-K492) (enzyme)” was run?
A: Its stoichiometry N is 2.

Q: Which stoichiometry N [6] does the source give for “ΔN-hGTPBP3 (N154-K492) (domain or fragment)” here?
A: The stoichiometry N was 2.

B1: EcMnmE G domain (G216-G384) (domain or fragment, Escherichia coli, UniProt P25522 216-384, looked up)
chain: GMKVVIAGRPNAGKSSLLNALAGREAAIVTDIAGTTRDVLREHIHIDGMPLHIIDTAGLREASDEVERIGIERAWQEIEQADRVLFMVDGTTTDAVDPAEIWPEFIARLPAKLPITVVRNKADITGETLGMSEVNGHALIRLSARTGEGVDVLRNHLKQSMGFDTNMEG
Q: B1 was tested. Which “stoichiometry N” value (SEC) did it give?
A: Its value is 2.
